Data as given in patent publication US20040171549A1.

Target: integrin alpha v beta 3 present at the surface of the endothelial cells (CPAE) (bovine (calf pulmonary artery endothelial cells)) (UniProt P80746)
Assay: cell-based or functional assay

UniProt P80746, sequence (P80746 31-1048): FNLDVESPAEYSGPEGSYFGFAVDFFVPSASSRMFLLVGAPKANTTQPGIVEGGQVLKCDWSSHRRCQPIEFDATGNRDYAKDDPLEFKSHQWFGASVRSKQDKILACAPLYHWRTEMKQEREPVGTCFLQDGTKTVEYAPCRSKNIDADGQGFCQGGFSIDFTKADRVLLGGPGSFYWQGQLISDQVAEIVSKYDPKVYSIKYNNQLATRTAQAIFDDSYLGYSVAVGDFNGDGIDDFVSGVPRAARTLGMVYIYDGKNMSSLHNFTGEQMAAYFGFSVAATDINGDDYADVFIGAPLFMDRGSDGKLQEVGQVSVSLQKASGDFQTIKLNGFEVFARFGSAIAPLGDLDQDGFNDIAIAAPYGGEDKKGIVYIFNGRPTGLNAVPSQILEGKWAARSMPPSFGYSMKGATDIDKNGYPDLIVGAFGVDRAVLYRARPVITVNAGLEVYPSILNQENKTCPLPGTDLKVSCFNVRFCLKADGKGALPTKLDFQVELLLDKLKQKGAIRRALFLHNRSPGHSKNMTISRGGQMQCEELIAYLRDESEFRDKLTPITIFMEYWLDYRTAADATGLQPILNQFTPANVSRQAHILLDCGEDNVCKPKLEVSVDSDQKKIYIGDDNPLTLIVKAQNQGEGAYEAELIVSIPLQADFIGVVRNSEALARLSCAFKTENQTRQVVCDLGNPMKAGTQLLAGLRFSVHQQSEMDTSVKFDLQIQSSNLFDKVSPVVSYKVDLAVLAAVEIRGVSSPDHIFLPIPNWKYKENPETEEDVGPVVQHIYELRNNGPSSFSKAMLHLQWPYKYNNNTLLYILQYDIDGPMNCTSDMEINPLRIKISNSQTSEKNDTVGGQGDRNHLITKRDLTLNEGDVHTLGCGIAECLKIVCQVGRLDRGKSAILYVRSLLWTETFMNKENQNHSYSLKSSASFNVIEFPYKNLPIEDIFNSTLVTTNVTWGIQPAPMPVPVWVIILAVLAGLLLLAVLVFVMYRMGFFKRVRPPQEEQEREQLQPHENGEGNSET

- inhibition of the adhesion of the cells on fibrinogen: 50%
- inhibition of the adhesion of the cells on vitronectin: 49%
Substance: 1.4-kDa fragment of AMEP constituted of 12 amino acids with the sequence RGDC (peptide)
